Tests used:
[1] = Skin penetration on topical application of somatotropin composition; conditions: composition topically applied
Experimental: A drug delivery composition formulated with somatotropin was formulated in one trial with 85% phosphatidylcholine to which lipoic acid and ascorbyl palmitate were added.

[2] = Storage stability of insulin by RP-HPLC and HPCE (Example 2); assay type: physicochemical
[3] = Storage stability of insulin by RP-HPLC and HPCE (Example 1); assay type: physicochemical; conditions: stored at room temperature
Experimental: This mixture was then divided in half, half of which was stored at 4° C., and the other half stored at room temperature.

| Substance | skin penetration [1] | time stable (RP-HPLC and HPCE) ([2]; stored at 4° C.) | time at which denaturing started ([2]; stored at room temperature) | time at which denaturing started [3] |
| --- | --- | --- | --- | --- |
| Somatotropin: pituitary growth hormone, formulated with 85% phosphatidylcholine, lipoic acid and ascorbyl palmitate | appeared to penetrate the skin well | – | – | – |
| insulin standards: recombinant human insulin in 0.01 N HCl, 1 mg/ml (Example 1) or 5 mg/ml (Example 2) | – | 22 weeks | ≤ 1 week | ≤ 7 days |

Reference: patent US9050248B2, “Methods of delivering stable topical drug compositions” (Transdermal Biotechnology, Inc., priority 2002, dated 2015)
